One block for each substance: values may come before it.
What was measured:
aCBF5 = assay: EMSA; details: EMSA: 150 mM KCl, 1.5 mM MgCl2, 0.2 mM EDTA, 20 mM HEPES pH 7.9, 65 C 10 min, 50 fmol sRNA, 200 nM proteins (Kd: 50-400 nM aCBF5); fluorescence: 300 mM NaCl …
aNOP10 (P. abyssi) = aNOP10 (P. abyssi) (UniProt Q9V0E3)
[1] = target: aNOP10 Y41A/Y44A (P. abyssi) (UniProt Q9V0E3)
[2] = target: aCBF5;aNOP10 Y41A/Y44A (Y);L7Ae (Pyrococcus abyssi;Pyrococcus abyssi) (UniProt P62008); assay: EMSA; details: radiolabeled substrate, excess unlabeled sRNP; EMSA: 150 mM KCl, 1.5 mM MgCl2, 0.2 mM EDTA, 20 mM HEPES pH 7.9, 65 C 10 min, 50 fmol sRNA, 200 nM proteins (Kd: 50-400 nM aCBF5); fluorescence: 300 mM NaCl …
[3] = target: aCBF5;aNOP10;L7Ae H70A/L74A/E77A (HLE) H65A;L69A;E72A (Pyrococcus abyssi;Pyrococcus abyssi) (UniProt P62008); assay: EMSA; details: radiolabeled substrate, excess unlabeled sRNP; EMSA: 150 mM KCl, 1.5 mM MgCl2, 0.2 mM EDTA, 20 mM HEPES pH 7.9, 65 C 10 min, 50 fmol sRNA, 200 nM proteins (Kd: 50-400 nM aCBF5); fluorescence: 300 mM NaCl …

Sequence of aNOP10 (P. abyssi) (Q9V0E3 whole entry): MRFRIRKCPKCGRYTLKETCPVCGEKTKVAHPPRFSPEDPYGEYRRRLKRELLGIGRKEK
Sequence of aNOP10 Y41A/Y44A (P. abyssi) (Q9V0E3 whole entry Y41A/Y44A): as the sequence (Q9V0E3 whole entry) above, with Y41A, Y44A counted along it

Substance: GGGGAUGGGCCCGGCUCCCGCCCUCUCCGGGGAAUCGUGAACCGGGGGUUCCGGCCGGGCCUACAGU [Pab21 H/ACA sRNA]
Kd (aCBF5): 125 nM

Substance: GGGUAAUGGGGCCCGGCUCUCACACCUCCGGGAUCAGUGACCGGAGGGCGGUCGCCGGGCCUACACCU [Pab91P121 chimera]
Kd (aCBF5): 200 nM

δ(Δε): decrease of the RNA CD signal at λmax on addition of L7Ae to the aCBF5-aNOP10-Pab21 complex (M^−1.cm^−1 per nt) (aNOP10 (P. abyssi)): -1.21 | δ(Δε): decrease of the RNA CD signal at λmax on addition of wild-type L7Ae to the aCBF5-aNOP10(Y41A/Y44A)-Pab21 complex (M^−1.cm^−1 per nt) [1]: -0.82
Substance: L7Ae (from UniProt P62008 1-123) (natural protein)

Substance: GGGGAUCCCCUCCCCUCCCGCCCUCUCCGGGGAAUCGUGAACCGGGGGUUCCGGGGGAGGGGACAGU [Pab21P191 chimera]
Kd (aCBF5): 200 nM

δ(Δε): decrease of the RNA CD signal at λmax on addition of L7Ae H70A/L74A/E77A to the wild-type aCBF5-aNOP10-Pab21 complex (M^−1.cm^−1 per nt) (aNOP10 (P. abyssi)): -0.825
Substance: L7Ae triple mutant H70A/L74A/E77A (from UniProt P62008 1-123) (natural protein)

Substance: Pab21 guide + substrate RNA
binding signal (fold decrease of CII') [2]: 2 | binding signal (fold decrease of CII') [3]: 2
